Laboratory results from patent US20110300138A1 (published 2011).
Read-outs that look alike come from different tables or passages of the source.

What was measured:
[1] = target: wild type TSHR expressed in CHO cells (human) (UniProt P16473); experiment: cell-based or functional assay
[2] = target: TSHR with Asp276 mutated to Ala, expressed in CHO cells (human) (UniProt P16473); experiment: cell-based or functional assay

For TSH (ligand), the % inhibition of TSH stimulation, wild type TSHR; TSH (2) (run at the end of assay) [1] was 0%, the % inhibition of TSH stimulation; TSH (2) [1] was 0% and the % inhibition of TSH stimulation; TSH (2) (run at the end of assay, against the first TSH sample); Experiment 1 [1] was 0%. The % inhibition of TSH stimulation; TSH (2) (run at the end of assay, against the first TSH sample); Experiment 2 [1] was 0%, the % inhibition of TSH stimulation; TSH (2), run at the end of assay [1] was 0.2% and the % inhibition of TSH stimulation; TSH (2); Experiment 1 [1] was 0%. The % inhibition of TSH stimulation; TSH (2); Experiment 2 [1] was 0%, the Cyclic AMP produced (pmol/mL), 0.01 ng/mL TSH [1] was 2.29 pmol/mL and the Cyclic AMP produced (pmol/mL), 0.01 ng/mL TSH, Experiment 1 [1] was 1.8 pmol/mL. It also gave a Cyclic AMP produced (pmol/mL), 0.01 ng/mL TSH, Experiment 2 [1] of 1.3 pmol/mL, a Cyclic AMP produced (pmol/mL), 0.03 ng/mL TSH [1] of 3.56 pmol/mL and a Cyclic AMP produced (pmol/mL), 0.03 ng/mL TSH, Experiment 1 [1] of 3.91 pmol/mL. For the same substance, the Cyclic AMP produced (pmol/mL), 0.03 ng/mL TSH, Experiment 2 [1] was 3 pmol/mL, the Cyclic AMP produced (pmol/mL), 0.1 ng/mL TSH [1] was 8.45 pmol/mL and the Cyclic AMP produced (pmol/mL), 0.1 ng/mL TSH, Experiment 1 [1] was 8.92 pmol/mL. The Cyclic AMP produced (pmol/mL), 0.1 ng/mL TSH, Experiment 2 [1] was 6.69 pmol/mL, the Cyclic AMP produced (pmol/mL), 0.3 ng/mL TSH [1] was 26.3 pmol/mL and the Cyclic AMP produced (pmol/mL), 0.3 ng/mL TSH, Experiment 1 [1] was 33 pmol/mL. It also gave a Cyclic AMP produced (pmol/mL), 0.3 ng/mL TSH, Experiment 2 [1] of 26.2 pmol/mL, a Cyclic AMP produced (pmol/mL), 1 ng/mL TSH [1] of 65.7 pmol/mL and a Cyclic AMP produced (pmol/mL), 1 ng/mL TSH, Experiment 1 [1] of 76.1 pmol/mL. It also gave a Cyclic AMP produced (pmol/mL), 1 ng/mL TSH, Experiment 2 [1] of 68.1 pmol/mL, a Cyclic AMP produced (pmol/mL), 3 ng/mL TSH [1] of 77.1 pmol/mL and a Cyclic AMP produced (pmol/mL), 3 ng/mL TSH, Experiment 1 [1] of 86.2 pmol/mL. It also gave a Cyclic AMP produced (pmol/mL), 3 ng/mL TSH, Experiment 2 [1] of 69.8 pmol/mL, a Cyclic AMP produced (pmol/mL), TSH 0.01 ng/mL [1] of 1.56 pmol/mL and a Cyclic AMP produced (pmol/mL), TSH 0.01 ng/mL, Experiment 1 [1] of 1.37 pmol/mL. The Cyclic AMP produced (pmol/mL), TSH 0.01 ng/mL, Experiment 2 [1] was 2.1 pmol/mL, the Cyclic AMP produced (pmol/mL), TSH 0.03 ng/mL [1] was 2.42 pmol/mL and the Cyclic AMP produced (pmol/mL), TSH 0.03 ng/mL, Experiment 1 [1] was 1.58 pmol/mL. It also gave a Cyclic AMP produced (pmol/mL), TSH 0.03 ng/mL, Experiment 2 [1] of 4.48 pmol/mL, a Cyclic AMP produced (pmol/mL), TSH 0.1 ng/mL [1] of 4.09 pmol/mL and a Cyclic AMP produced (pmol/mL), TSH 0.1 ng/mL, Experiment 1 [1] of 1.83 pmol/mL. It also gave a Cyclic AMP produced (pmol/mL), TSH 0.1 ng/mL, Experiment 2 [1] of 10.3 pmol/mL, a Cyclic AMP produced (pmol/mL), TSH 0.3 ng/mL [1] of 11.4 pmol/mL and a Cyclic AMP produced (pmol/mL), TSH 0.3 ng/mL, Experiment 1 (single determination) [1] of 3.2 pmol/mL. For the same substance, the Cyclic AMP produced (pmol/mL), TSH 0.3 ng/mL, Experiment 2 [1] was 35.7 pmol/mL, the Cyclic AMP produced (pmol/mL), TSH 1 ng/mL [1] was 45.6 pmol/mL and the Cyclic AMP produced (pmol/mL), TSH 1 ng/mL, Experiment 1 [1] was 15.9 pmol/mL. It also gave a Cyclic AMP produced (pmol/mL), TSH 1 ng/mL, Experiment 2 [1] of 72 pmol/mL, a Cyclic AMP produced (pmol/mL), TSH 3 ng/mL [1] of 77.9 pmol/mL and a Cyclic AMP produced (pmol/mL), TSH 3 ng/mL, Experiment 1 [1] of 47.6 pmol/mL. The Cyclic AMP produced (pmol/mL), TSH 3 ng/mL, Experiment 2 [1] was 79.2 pmol/mL, the Cyclic AMP produced, TSH 0.01 ng/mL, wild type TSHR [1] was 2.28 pmol/mL and the Cyclic AMP produced, TSH 0.03 ng/mL, wild type TSHR [1] was 3.77 pmol/mL. For the same substance, the Cyclic AMP produced, TSH 0.1 ng/mL, wild type TSHR [1] was 9.55 pmol/mL, the Cyclic AMP produced, TSH 0.3 ng/mL, wild type TSHR [1] was 28.8 pmol/mL and the Cyclic AMP produced, TSH 1 ng/mL, wild type TSHR [1] was 76.8 pmol/mL. It also gave a Cyclic AMP produced, TSH 3 ng/mL, wild type TSHR [1] of 93.1 pmol/mL, a Cyclic AMP produced, wild type TSHR, TSH 0.01 ng/mL (Experiment 1) [1] of 1.69 pmol/mL and a Cyclic AMP produced, wild type TSHR, TSH 0.01 ng/mL (Experiment 2) [1] of 4.16 pmol/mL. For the same substance, the Cyclic AMP produced, wild type TSHR, TSH 0.03 ng/mL (Experiment 1) [1] was 2.46 pmol/mL, the Cyclic AMP produced, wild type TSHR, TSH 0.03 ng/mL (Experiment 2) [1] was 4.92 pmol/mL and the Cyclic AMP produced, wild type TSHR, TSH 0.1 ng/mL (Experiment 1) [1] was 6.18 pmol/mL. For the same substance, the Cyclic AMP produced, wild type TSHR, TSH 0.1 ng/mL (Experiment 2) [1] was 11.2 pmol/mL, the Cyclic AMP produced, wild type TSHR, TSH 0.3 ng/mL (Experiment 1) [1] was 18.9 pmol/mL and the Cyclic AMP produced, wild type TSHR, TSH 0.3 ng/mL (Experiment 2) [1] was 31.4 pmol/mL. For the same substance, the Cyclic AMP produced, wild type TSHR, TSH 1 ng/mL (Experiment 1) [1] was 45.2 pmol/mL, the Cyclic AMP produced, wild type TSHR, TSH 1 ng/mL (Experiment 2) [1] was 74.3 pmol/mL and the Cyclic AMP produced, wild type TSHR, TSH 3 ng/mL (Experiment 1) [1] was 61.6 pmol/mL. The Cyclic AMP produced, wild type TSHR, TSH 3 ng/mL (Experiment 2) [1] was 96.4 pmol/mL, the Cyclic AMP produced; TSH 3 ng/mL [1] was 85 pmol/mL and the Cyclic AMP produced; TSH 3 ng/mL alone [1] was 83.8 pmol/mL. For the same substance, the Cyclic AMP produced; TSH 3 ng/mL; Experiment 1 [1] was 68.8 pmol/mL, the Cyclic AMP produced; TSH 3 ng/mL; Experiment 2 [1] was 97.9 pmol/mL and the Cyclic AMP produced; TSH (2) [1] was 93.5 pmol/mL. It also gave a Cyclic AMP produced; TSH (2) 3 ng/mL, run at the end of assay [1] of 83.6 pmol/mL, a Cyclic AMP produced; TSH (2); Experiment 1 [1] of 74.3 pmol/mL and a Cyclic AMP produced; TSH (2); Experiment 2 [1] of 102 pmol/mL. It also gave an Experiment 1: % inhibition of TSH stimulation; TSH (2), run at the end of assay [1] of 0%, an Experiment 1; % inhibition of TSH stimulation; TSH (2) 3 ng/mL, run at the end of assay [1] of 5% and an Experiment 1; cyclic AMP produced; TSH 3 ng/mL [1] of 78 pmol/mL. It also gave an Experiment 1; cyclic AMP produced; TSH (2) 3 ng/mL, run at the end of assay [1] of 74.3 pmol/mL, an Experiment 2: % inhibition of TSH stimulation; TSH (2), run at the end of assay [1] of 0% and an Experiment 2; % inhibition of TSH stimulation; TSH (2) 3 ng/mL, run at the end of assay [1] of 3%. It also gave an Experiment 2; cyclic AMP produced; TSH 3 ng/mL [1] of 95.8 pmol/mL, an Experiment 2; cyclic AMP produced; TSH (2) 3 ng/mL, run at the end of assay [1] of 92.9 pmol/mL and a % inhibition of TSH stimulation; TSH (2) ([1]; record 2) of 0%. It also gave a % inhibition of TSH stimulation; TSH (2); Experiment 1 ([1]; record 2) of 0%, a % inhibition of TSH stimulation; TSH (2); Experiment 2 ([1]; record 2) of 0% and a Cyclic AMP produced; TSH 3 ng/mL ([1]; record 2) of 76.2 pmol/mL. The Cyclic AMP produced; TSH 3 ng/mL; Experiment 1 ([1]; record 2) was 154 pmol/mL, the Cyclic AMP produced; TSH 3 ng/mL; Experiment 2 ([1]; record 2) was 59.9 pmol/mL and the Cyclic AMP produced; TSH (2) ([1]; record 2) was 93.8 pmol/mL. The Cyclic AMP produced; TSH (2); Experiment 1 ([1]; record 2) was 160 pmol/mL, the Cyclic AMP produced; TSH (2); Experiment 2 ([1]; record 2) was 61.5 pmol/mL and the Cyclic AMP produced (pmol/mL), TSH 0.01 ng/mL [2] was 14.3 pmol/mL. The Cyclic AMP produced (pmol/mL), TSH 0.03 ng/mL [2] was 17.6 pmol/mL, the Cyclic AMP produced (pmol/mL), TSH 0.1 ng/mL [2] was 21.7 pmol/mL and the Cyclic AMP produced (pmol/mL), TSH 0.3 ng/mL [2] was 45.6 pmol/mL. The Cyclic AMP produced (pmol/mL), TSH 1 ng/mL [2] was 68.3 pmol/mL, the Cyclic AMP produced (pmol/mL), TSH 3 ng/mL [2] was 76 pmol/mL and the Experiment 1; % inhibition of TSH stimulation; TSH (2) 3 ng/mL, run at the end of assay [2] was 6%. The Experiment 1; Mutated/wild type (%) of cyclic AMP produced; TSH 3 ng/mL [2] was 91%, the Experiment 1; Mutated/wild type (%) of cyclic AMP produced; TSH (2) 3 ng/mL, run at the end of assay [2] was 90% and the Experiment 1; cyclic AMP produced; TSH 3 ng/mL [2] was 71.2 pmol/mL. It also gave an Experiment 1; cyclic AMP produced; TSH (2) 3 ng/mL, run at the end of assay [2] of 67 pmol/mL, an Experiment 2; % inhibition of TSH stimulation; TSH (2) 3 ng/mL, run at the end of assay [2] of 18% and an Experiment 2; Mutated/wild type (%) of cyclic AMP produced; TSH 3 ng/mL [2] of 78%.
